Series [1] concerns AFP pre-mRNA (AFP_E3-E6 mini-gene). Briefly: real-time RT-PCR (TaqMan) quantification of trans-splicing towards over-expressed AFP mini-gene in HepG2 cells. The format is cell-based, human. Conditions: 3′ER, HepG2 co-transfected with AFP mini-gene vector, 24 hours post transfection. The method, then:
Transfection of plasmid DNAs: HepG2 cells were transfected at ˜70-90% confluency in a 6-well plate for Western blotting, 12-well for FACS analyses and 24-well plate for all other analyses using either Lipofectamine 3000 (for FACS studies only) or Lipofectamine 2000, (Life Technologies) according to manufacturer's protocol. A total of 1 μg DNA was co-transfected or transfected in a 24-well plate format (500 ng:500 ng of ts construct: AFP_E3_E6 minigene) in over-expression studies and 1 μg of ts constructs only in endogenous studies. For 12-well and 6-well formats, the amount of total DNA was scaled up to 2 μg and 4 μg respectively. For FACS experiments, either 500 ng of pEGFP-C2 plasmid was co-transfected along with the ts and AFP mini-gene vectors to perform experiments with some 3′ER and 5′ER plasmids and dumbbells, or the GFP infused ts vectors were used along with/without AFP mini-gene for over-expression and endogenous studies respectively.
Total RNA Isolation: RNA was isolated 24 hours post-transfection using RNeasy plus kit (Qiagen) following the manufacturer's protocol. RNA concentrations were measured using NanoDrop 2000.
cDNA conversion and real-time RT-PCR: 500 ng RNA from all samples was converted into cDNA using the First Strand SuperScript RTIII (Invitrogen) kit with 200 ng of random hexamers and 10 uM of dNTPs. The reaction conditions were 25° C. for 5 min, followed by 50° C. for 2 h and enzyme inactivation at 70° C. for 15 min. 20 ng of cDNA was used as template for real time RT-PCR. TaqMan quantification was performed in ABI 7900HT of the cDNAs by designing specific probe and primer sets for each cis- and trans-splicing detection. One set of probes were designed in the AFP regions; namely AFP probe exon 5 and AFP probe exon 4 to detect 3′ER and 5′ER cis and trans-splicing respectively. Primers to detect 3′ER cis-splicing along with AFP probe were FP afp exon 5 (set1) and RP afp exon 6 and for 3′ER trans-splicing were FP afp exon 5 (set1) and RP HSVtk. Primers to detect 5′ER cis-splicing along with AFP probe were FP afp exon 3 and RP afp exon 4 (set1) and for 5′ER trans-splicing were FP HSVtk (set1) and RP afp exon 4 (set1). Another set of probes were designed in the distal HSVtk region to detect 3′ER, named HSVtk probe for 3′ER and proximal HSVtk region to detect 5′ER, named HSVtk probe for 5′ER trans-splicing alone. The primers to detect 3′ER trans-splicing along with HSVtk probes were FP afp exon 5 (set2) and RP HSVtk. Primers to detect 5′ER trans-splicing along with HSVtk probes were FP HSVtk (set2) and RP afp exon 4 (set2). The number of cycles in over-expression studies and endogenous studies were 40 and 50 respectively. RT-PCR: Reverse transcription PCR was performed on the cDNA samples using Taq DNA polymerase (Fermentas) with […] of two-step PCR (30+30 cycles or 35+35 cycles) to detect 3′ and 5′ cis and trans-splicing and the bands were visualized on a 1% agarose gel. The primers used to detect 3′ER cis-splicing and mock were FP afp exon 5 (set1) and RP afp exon 6, to detect 3′ER trans-splicing were FP afp exon 5 (set1) and RP HSVtk. To detect 5′ER cis-splicing and mock were primers FP afp exon 3 and RP afp exon 4 (set1), to detect 5′ER trans-splicing were primers FP HSVtk (set1) and RP afp exon 4 (set1). […]

For series [2], the system named is HHRz cleavage motif at tsRNA 3′ end. Briefly: stem-loop primer based rt-RT-PCR of hammerhead ribozyme (HHRz) cleavage. The format is cell-based. From the text: FIG. 3 Improved stability at 3′ end of the RNA improves 5′ trans-splicing in correlation with cleavage of hammerhead ribozyme. […] 145. The conserved motifs of stem Ia, Ib and II are highlighted in boxes and stem Ill is designed as a perfect complement to the 3′ end of the ΔBD to make the HH Rz structure. Cleavage motif GUC is shown with a scissor icon. […] R2, correlation coefficient. n=3, linear regression analysis.
That was surprising as the uncleaved RNA comprises a polyA tail and is expected to be exported to the cytoplasm thereby lowering its nuclear concentration and the rate of trans-splicing. We investigated HHRz cleavage by quantifying the cleaved RNA 3′ end using stem-loop primer based rt-RT-PCR (FIG. 3a). This method was proven to efficiently discriminate between perfect primer-matching and extended RNA 3′ ends. The observed 6.2 cycle difference indicated a ribozyme cleavage rate above 90% yielding trans-splicing RNA with an unstructured 3′ terminal BD (FIG. 3a). Unstructured ends of antisense RNA have been reported to be associated with both fast target binding and degradation. […]

B1: 3ER_ΔBD-opt: parental 3′ exon replacement tsRNA construct; unstructured 50 base BD to AFP intron 5 with two mismatches, HSVtk (nucleic acid)
DNA: GCTAGCACCTCTCTAAACCTAAATTAAATTTTCTTCTCTAAACCTCTTTCCTAGTTGGACTGACGTCACTCAGTCCTCCTCCTCAGC
Regarding B1, in series [1], the “more potent (trans-splicing) than 3ER_BD-struc1” value was found to be 4 fold and the “stronger trans-splicing compared with 3ER_ΔBD-opt-inv” value is 3 fold. Besides, in series [1] (p=0.04), the “more potent (trans-splicing) than 3ER_BD-struc2” value came out at 6 fold, the “stronger trans-splicing compared with 3ER_BD-opt” value turned out to be 4 fold and the “stronger trans-splicing compared with 3ER_BD-opt-inv” value came to 30 fold.

B2: p5ER_ΔBD-opt_HH: parental 5′ exon replacement tsRNA construct; unstructured mismatched BD to AFP intron 3, HSVtk, active hammerhead ribozyme (nucleic acid)
DNA: GGTACCCCTCCTTCCTCCTCCTCCTCCTCCTCCTCCTATATACATATACACACACACACACACTCATACCACATTTCAGACATAAAT
For B2, the ribozyme cleavage rate result in series [2] (indicated by the cycle difference) was “above 90%”. Moreover, in series [2] (stem-loop primer rt-RT-PCR), the “cycle difference, cleaved RNA 3′ end (active versus inactive HHRz motif)” value is recorded as 6.2 cycle.
